Experiment [1] deals with GST-pre-S1 (1st to 56th amino acids) protein (hepatitis B virus) [GST: P08515]. Kind of experiment: competitive ELISA and BLI (Octet Red).
Experiment [2] shares this target. In words: BLI (Octet Red), antibody captured on anti-human Fc tip, GST-pre-S1 in solution. For orientation: In BLI a coated tip is dipped into the sample, and binding shifts an interference pattern.

Chain of GST-pre-S1 (1st to 56th amino acids) protein (hepatitis B virus) [GST: P08515] (P08515 whole entry): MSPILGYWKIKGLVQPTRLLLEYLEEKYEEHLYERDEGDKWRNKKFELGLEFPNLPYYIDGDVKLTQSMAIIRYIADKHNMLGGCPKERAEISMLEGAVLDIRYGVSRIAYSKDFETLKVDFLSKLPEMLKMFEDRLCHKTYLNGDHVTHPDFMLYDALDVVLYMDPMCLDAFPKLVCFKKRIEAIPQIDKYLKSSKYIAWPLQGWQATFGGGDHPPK

B1: humanized antibody HzKR127-3.1 (antibody, V domains shown)
VH: QVQLQQSGAEVKKPGASVKVSCKASGYTFTSSWMNWVRQAPGQGLEWMGRIYPGDGDTNYAQKFQGRVTMTADKSTSTVYMELSSLRSEDTAVYYCAREYAEAYWGQGTLVTVSS
VL: DIVMTQTPLSLSVTPGQPASISCKSSQSLLYSNGKTYLNWLLQKPGQPPQRLIYLVSNRDSGVPDRFSGSGSGTDFTLKISRVEAEDVGVYYCVQGTHFPQTFGGGTKVEIKR
What is called Kd is the concentration at which binding is half-saturated. Read a low Kd as higher affinity. Usually koff stands for the rate constant with which the complex falls apart. As usually defined, the kon is the rate constant with which the complex forms. High values mean faster complex formation, low ones slower complex formation. B1 returned a fold higher affinity than HzKR127-3 in experiment [1] of 4.9 fold. In experiment [2], this molecule gave a Kd of 0.813 nM, a koff of 4.13e-05 s⁻¹ and a kon of 50800 M⁻¹ s⁻¹.
